Test results published in the supplement of paper PMC9112550, “Optimization of the antimicrobial peptide Bac7 by deep mutational scanning” (BMC Biology, 2022).

Test system: Escherichia coli TOP10
Experiment: shrunken log2 fold change of peptide-encoding DNA abundance (4.5 h post-induction vs induction); higher = less antimicrobial activity (less host growth inhibition)
Conditions: time post-induction: 4.5 h; library: site-saturation at positions 5, 18, 19, 20
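Also: peptides expressed intracellularly from a pBAD plasmid library in pooled LB shake-flask culture, induced with 0.3% L-arabinose, DNA abundance read by NGS, three biological replicates, DESeq2 with apeglm shrinkage.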

Sequence	shrunken log2 fold change
RRIRPRPPRLPRPRPRPWWWPRP	-0.00448
RRIRPRPPRLPRPRPRPMRSPRP	0.478
RRIRIRPPRLPRPRPRPQDSPRP	-0.269
RRIRLRPPRLPRPRPRPRKMPRP	0.281
RRIRVRPPRLPRPRPRPSDMPRP	-0.519
RRIRERPPRLPRPRPRPRTRPRP	0.12
RRIRDRPPRLPRPRPRPFNIPRP	0.0125
RRIRPRPPRLPRPRPRPMTPPRP	0.165
RRIRMRPPRLPRPRPRPCAIPRP	-0.216
RRIRYRPPRLPRPRPRPPAGPRP	0.322
RRIRMRPPRLPRPRPRPWTVPRP	-0.248
RRIRLRPPRLPRPRPRPQVMPRP	-0.0202
RRIRHRPPRLPRPRPRPPYHPRP	-0.495
RRIRGRPPRLPRPRPRPPSSPRP	0.703
RRIRIRPPRLPRPRPRPYMVPRP	-0.377
RRIRRRPPRLPRPRPRPNLLPRP	-0.00833
RRIRFRPPRLPRPRPRPSVNPRP	-0.388
RRIRLRPPRLPRPRPRPHRGPRP	-0.00203
RRIRQRPPRLPRPRPRPNHCPRP	-0.0615
RRIRFRPPRLPRPRPRPNNRPRP	-0.139
RRIRNRPPRLPRPRPRPGTDPRP	-0.0425
RRIRPRPPRLPRPRPRPRPAPRP	0.529
RRIRRRPPRLPRPRPRPQCEPRP	0.153
RRIRDRPPRLPRPRPRPQAEPRP	-0.129
RRIRYRPPRLPRPRPRPPDPPRP	0.179

Sequence	shrunken log2 fold change
RRIRTRPPRLPRPRPRPWQRPRP	0.157
RRIRVRPPRLPRPRPRPRMCPRP	-0.35
RRIRSRPPRLPRPRPRPSTFPRP	-0.109
RRIRKRPPRLPRPRPRPQITPRP	-0.0657
RRIRCRPPRLPRPRPRPRNMPRP	0.0316
RRIRSRPPRLPRPRPRPVMEPRP	-0.0868
RRIRDRPPRLPRPRPRPFAMPRP	-0.188
RRIRFRPPRLPRPRPRPHVEPRP	-0.00526
RRIRFRPPRLPRPRPRPLAWPRP	0.32
RRIRYRPPRLPRPRPRPHQHPRP	0.0599
RRIRSRPPRLPRPRPRPTFNPRP	-0.366
RRIRDRPPRLPRPRPRPGASPRP	1.08
RRIRMRPPRLPRPRPRPLSRPRP	0.349
RRIRGRPPRLPRPRPRPKAEPRP	1.35
RRIRPRPPRLPRPRPRPRHIPRP	-0.0802
RRIRARPPRLPRPRPRPQSNPRP	-0.142
RRIRDRPPRLPRPRPRPLSPPRP	-0.0511
RRIRRRPPRLPRPRPRPLGAPRP	0.468
RRIRERPPRLPRPRPRPEKRPRP	-0.0657
RRIRCRPPRLPRPRPRPYYTPRP	0.00417
RRIRQRPPRLPRPRPRPTNWPRP	0.146
RRIRDRPPRLPRPRPRPNWGPRP	0.061
RRIRIRPPRLPRPRPRPRRRPRP	0.169
RRIRQRPPRLPRPRPRPVMMPRP	-0.335
RRIRLRPPRLPRPRPRPEDMPRP	0.0524

Sequence	shrunken log2 fold change
RRIRQRPPRLPRPRPRPFKSPRP	-0.00197
RRIRRRPPRLPRPRPRPTTEPRP	0.0681
RRIRVRPPRLPRPRPRPMSFPRP	-0.157
RRIRPRPPRLPRPRPRPTVTPRP	-0.0401
RRIRMRPPRLPRPRPRPGWCPRP	0.181
RRIRARPPRLPRPRPRPTGHPRP	-0.132
RRIRRRPPRLPRPRPRPLDQPRP	-0.0226
RRIRDRPPRLPRPRPRPQHWPRP	0.122
RRIRQRPPRLPRPRPRPKAQPRP	0.0112
RRIRCRPPRLPRPRPRPIRSPRP	-0.389
RRIRRRPPRLPRPRPRPLHAPRP	1.06
RRIRGRPPRLPRPRPRPMNKPRP	1.69
RRIRRRPPRLPRPRPRPLNSPRP	0.134
RRIRNRPPRLPRPRPRPRCQPRP	0.297
RRIRPRPPRLPRPRPRPIVDPRP	0.0804
RRIRKRPPRLPRPRPRPSRKPRP	0.0758
RRIRWRPPRLPRPRPRPAYIPRP	-0.0757
RRIRERPPRLPRPRPRPSQNPRP	-0.267
RRIRTRPPRLPRPRPRPGFLPRP	0.122
RRIRHRPPRLPRPRPRPDCHPRP	0.0149
RRIRPRPPRLPRPRPRPKEMPRP	-0.106
RRIRARPPRLPRPRPRPSDVPRP	0.162
RRIRLRPPRLPRPRPRPTVHPRP	-0.131
RRIRHRPPRLPRPRPRPAYFPRP	-0.833
RRIRRRPPRLPRPRPRPCPKPRP	-0.0745

Sequence	shrunken log2 fold change
RRIRARPPRLPRPRPRPALCPRP	0.637
RRIRVRPPRLPRPRPRPEPHPRP	-0.0157
RRIRMRPPRLPRPRPRPHVFPRP	0.0558
RRIRVRPPRLPRPRPRPAGAPRP	0.417
RRIRTRPPRLPRPRPRPSQHPRP	-0.387
RRIRDRPPRLPRPRPRPPGQPRP	0.0311
RRIRLRPPRLPRPRPRPAFAPRP	0.368
RRIRNRPPRLPRPRPRPNGLPRP	0.00468
RRIRLRPPRLPRPRPRPNGHPRP	-0.0365
RRIRVRPPRLPRPRPRPCWIPRP	-0.0862
RRIRPRPPRLPRPRPRPQFFPRP	-0.0064
RRIRTRPPRLPRPRPRPDIRPRP	0.0296
RRIRARPPRLPRPRPRPMHWPRP	0.548
RRIRPRPPRLPRPRPRPTFTPRP	0.101
RRIRERPPRLPRPRPRPTMNPRP	-0.19
RRIRDRPPRLPRPRPRPHAGPRP	0.0575
RRIRKRPPRLPRPRPRPCWMPRP	0.446
RRIRWRPPRLPRPRPRPHGVPRP	0.0746
RRIRWRPPRLPRPRPRPALAPRP	0.555
RRIRERPPRLPRPRPRPCCDPRP	-0.362
RRIRPRPPRLPRPRPRPGYYPRP	-0.45
RRIRHRPPRLPRPRPRPYLCPRP	-0.0059
RRIRHRPPRLPRPRPRPNLPPRP	-0.57
RRIRYRPPRLPRPRPRPVLKPRP	-0.122
RRIRKRPPRLPRPRPRPRKVPRP	0.596

Sequence	shrunken log2 fold change
RRIRIRPPRLPRPRPRPIWHPRP	-0.455
RRIRSRPPRLPRPRPRPPDRPRP	0.643
RRIRARPPRLPRPRPRPQKCPRP	0.0806
RRIRYRPPRLPRPRPRPGCHPRP	-0.711
RRIRWRPPRLPRPRPRPARGPRP	0.687
RRIRLRPPRLPRPRPRPWQMPRP	0.123
RRIRNRPPRLPRPRPRPHNEPRP	-0.509
RRIRHRPPRLPRPRPRPKKCPRP	-0.225
RRIRDRPPRLPRPRPRPATTPRP	0.163
RRIRRRPPRLPRPRPRPFPPPRP	0.222
RRIRCRPPRLPRPRPRPCMWPRP	-0.124
RRIRMRPPRLPRPRPRPDWMPRP	-0.0455
RRIRVRPPRLPRPRPRPVLKPRP	-0.193
RRIRVRPPRLPRPRPRPVLDPRP	-0.145
RRIRFRPPRLPRPRPRPRWEPRP	0.025
RRIRERPPRLPRPRPRPEHNPRP	-0.203
RRIRGRPPRLPRPRPRPVWHPRP	0.228
RRIRARPPRLPRPRPRPVGPPRP	0.124
RRIRQRPPRLPRPRPRPDVAPRP	-0.116
RRIRTRPPRLPRPRPRPIAEPRP	0.0307
RRIRERPPRLPRPRPRPHAIPRP	-0.234
RRIRQRPPRLPRPRPRPYNGPRP	-0.631
RRIRGRPPRLPRPRPRPKEYPRP	-0.102
RRIRRRPPRLPRPRPRPISWPRP	-0.166
RRIRLRPPRLPRPRPRPSQTPRP	-0.217
